The values that follow come from patent US20250296959A1, “B7-H3 TARGETING PEPTIDES AND CONSTRUCTS THEREOF” (Mariana Oncology Inc., priority 2024, published 2025).

The target of assay [1] is B7-H3 on Calu-6 cells (human) (UniProt Q5ZPR3). Description: 177Lu-labelled peptide on Calu-6 cells, % cell associated fraction; C = >50%.
The next assay deals with T1, B7-H3 on Calu-6 cells (human, UniProt Q5ZPR3 29-534).
T1 construct: whole, on cells
T1 sequence (looked up): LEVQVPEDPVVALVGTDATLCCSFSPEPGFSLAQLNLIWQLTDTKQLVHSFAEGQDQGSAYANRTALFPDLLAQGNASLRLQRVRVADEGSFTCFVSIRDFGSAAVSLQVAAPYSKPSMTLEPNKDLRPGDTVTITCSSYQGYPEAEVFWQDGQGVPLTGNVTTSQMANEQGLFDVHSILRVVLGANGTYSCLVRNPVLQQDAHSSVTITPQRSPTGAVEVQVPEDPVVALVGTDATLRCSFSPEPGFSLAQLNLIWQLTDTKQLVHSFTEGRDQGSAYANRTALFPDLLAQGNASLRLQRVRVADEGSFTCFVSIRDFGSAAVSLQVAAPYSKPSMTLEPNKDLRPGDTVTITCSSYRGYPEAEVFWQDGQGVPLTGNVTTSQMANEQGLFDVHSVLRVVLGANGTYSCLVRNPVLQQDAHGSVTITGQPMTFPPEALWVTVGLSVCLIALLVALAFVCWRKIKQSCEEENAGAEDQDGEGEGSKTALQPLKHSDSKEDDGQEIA
The assay is described as above.

Starred links: 1 amine or outer side, 2 acyl side, 3 side chain; linkers in the order of their positions; H or OH if unused. Positions of bridges follow the written chain, without caps; N, C: chain ends. Non-standard residues stand in square brackets, D forms with d. Groups on a side chain read outwards from the residue. Primed or numbered codes have the meaning given here. *: point of attachment. Ala(piperidin-4-yl) = O=C([C@H](CC1CCN([*:3])CC1)N[*:1])[*:2]; (2S,3S)βMePhe = C[C@@H](c1ccccc1)[C@H](N[*:1])C(=O)[*:2]; DOTA = O=C(O)CN1CCN(CC(=O)O)CCN(CC(=O)*)CCN(CC(=O)O)CC1; Phe(4-NHCONH2) = NC(=O)Nc1ccc(C[C@H](N)C(=O)O)cc1; PipAla = piperidinyl-alanine residue (as named); Trp(5-F) = N[C@@H](Cc1c[nH]c2ccc(F)cc12)C(=O)O; hydroxyVal = hydroxy-valine residue (as named); PEG4′ = 4x 3-(2-aminoethoxy)propanoic acid; 1Nal = N[C@@H](Cc1cccc2ccccc12)C(=O)O; Ala(4-THP) = N[C@@H](CC1CCOCC1)C(=O)O; Val(3-OH) = CC(C)(O)[C@H](N)C(=O)O; Cha = N[C@@H](CC1CCCCC1)C(=O)O; Tle = CC(C)(C)[C@H](N)C(=O)O; hLeu = CC(C)CC[C@H](N)C(=O)O; Sar = CNCC(=O)O

B1: Cpd 499 (peptide)
peptide: Ac-[hLeu]YC[Tle]G[PipAla](CH2COOH)[Ala(4-THP)]DV[Phe(4-NHCONH2)]C[Trp(5-F)][(2S,3S)βMePhe][Val(3-OH)][dK](DOTA)-OH
modifications: disulfide 3-11 (inferred)
Turning to B1, the % cell associated fraction in assay [1] was over 50%.

B2: Cpd 158 (peptide)
peptide: Ac-[hLeu]YCVGKYDVYC[1Nal]FT[dK](DOTA)-NH2
modifications: disulfide 3-11
SMILES: CC(=O)N[C@@H](CCC(C)C)C(=O)N[C@@H](Cc1ccc(O)cc1)C(=O)N[C@H]1CSSC[C@@H](C(=O)N[C@@H](Cc2cccc3ccccc23)C(=O)N[C@@H](Cc2ccccc2)C(=O)N[C@H](C(=O)N[C@H](CCCCNC(=O)CN2CCN(CC(=O)O)CCN(CC(=O)O)CCN(CC(=O)O)CC2)C(N)=O)[C@@H](C)O)NC(=O)[C@H](Cc2ccc(O)cc2)NC(=O)[C@H](C(C)C)NC(=O)[C@H](CC(=O)O)NC(=O)[C@H](Cc2ccc(O)cc2)NC(=O)[C@H](CCCCN)NC(=O)CNC(=O)[C@H](C(C)C)NC1=O
B2: the “% cell associated fraction” value with B7-H3 on Calu-6 cells was over 50%.

B3: Cpd 227 (peptide)
peptide: Ac-[hLeu]YCVG[Ala(piperidin-4-yl)][Cha]DVYC[Trp(5-F)]F[Val(3-OH)][dK](DOTA)-NH2
modifications: disulfide 3-11 (inferred)
The molecule B3 came in with a % cell associated fraction in assay [1] of over 50%.

B4: Cpd 339 (peptide)
peptide: Ac-[hLeu]YC[Tle]G[PipAla](CH2CO2H)[Ala(4-THP)]DVYC[Trp(5-F)]F[Val(3-OH)][dK](DOTA)-OH
modifications: disulfide 3-11 (inferred)
In assay [1], B4 displayed a % cell associated fraction of over 50%.

B5: Cpd 385 (peptide)
peptide: Ac-[hLeu]YC[Tle]GK[Pip(PEG4-DOTA)Ala]DVYC[Trp(5-F)]F[Val(3-OH)][dA]-NH2
modifications: disulfide 3-11 (inferred)
In the case of B5, in assay [1], the % cell associated fraction was over 50%.

B6: Cpd 340 (peptide)
peptide: Ac-[hLeu]YC[Tle]G[Ala(piperidin-4-yl)][Ala(4-THP)]DVYC[Trp(5-F)]F[Val(3-OH)][dK](DOTA)-OH
modifications: disulfide 3-11 (inferred)
B6 displayed a % cell associated fraction in assay [1] of over 50%.

B7: Cpd 73 (peptide)
peptide: Ac-[hLeu]YCVGKYDVYC[Trp(5-F)]FT[dK](DOTA)-NH2
modifications: disulfide 3-11
SMILES: CC(=O)N[C@@H](CCC(C)C)C(=O)N[C@@H](Cc1ccc(O)cc1)C(=O)N[C@H]1CSSC[C@@H](C(=O)N[C@@H](Cc2c[nH]c3ccc(F)cc23)C(=O)N[C@@H](Cc2ccccc2)C(=O)N[C@H](C(=O)N[C@H](CCCCNC(=O)CN2CCN(CC(=O)O)CCN(CC(=O)O)CCN(CC(=O)O)CC2)C(N)=O)[C@@H](C)O)NC(=O)[C@H](Cc2ccc(O)cc2)NC(=O)[C@H](C(C)C)NC(=O)[C@H](CC(=O)O)NC(=O)[C@H](Cc2ccc(O)cc2)NC(=O)[C@H](CCCCN)NC(=O)CNC(=O)[C@H](C(C)C)NC1=O
With B7, the “% cell associated fraction” value with B7-H3 on Calu-6 cells is over 50%.

B8: Cpd 76 (peptide)
peptide: Ac-[hLeu]YC[Tle]GKYDVYC[Trp(5-F)]FT[dK](DOTA)-NH2
modifications: disulfide 3-11
SMILES: CC(=O)N[C@@H](CCC(C)C)C(=O)N[C@@H](Cc1ccc(O)cc1)C(=O)N[C@H]1CSSC[C@@H](C(=O)N[C@@H](Cc2c[nH]c3ccc(F)cc23)C(=O)N[C@@H](Cc2ccccc2)C(=O)N[C@H](C(=O)N[C@H](CCCCNC(=O)CN2CCN(CC(=O)O)CCN(CC(=O)O)CCN(CC(=O)O)CC2)C(N)=O)[C@@H](C)O)NC(=O)[C@H](Cc2ccc(O)cc2)NC(=O)[C@H](C(C)C)NC(=O)[C@H](CC(=O)O)NC(=O)[C@H](Cc2ccc(O)cc2)NC(=O)[C@H](CCCCN)NC(=O)CNC(=O)[C@H](C(C)(C)C)NC1=O
Turning to B8, the “% cell associated fraction” value with B7-H3 on Calu-6 cells was over 50%.

B9: Cpd 407 (peptide)
peptide: Ac-[hLeu]YC[Tle]G[Pip(PEG4-DOTA)Ala][Ala(4-THP)]DVYC[Trp(5-F)]F[Val(3-OH)][dS]-NH2
modifications: disulfide 3-11 (inferred)
For B9, in assay [1], the % cell associated fraction is over 50%.

B10: Cpd 433 (peptide)
peptide: Ac-[hLeu]YC[Tle]G[PipAla][Ala(4-THP)]DVYCX[(2S,3S)βMePhe][hydroxyVal][dK](DOTA)-OH
modifications: disulfide 3-11 (inferred); not fully specified (residue 12); printed as Ac-hLeu-Y-C-Tbg-G-PipAla-ThpA-D-V-Y-C-5FW-[(2S, 3S)beta-Me-Phe]-hydroxyVal-dLys(DOTA)-COOH, disulfide
In turn, B10 gave a % cell associated fraction in assay [1] of over 50%.

B11: Cpd 408 (peptide)
peptide: Ac-[hLeu]YC[Tle]GK[Pip(PEG4-DOTA)Ala]DVYC[Trp(5-F)]F[Val(3-OH)][dS]-NH2
modifications: disulfide 3-11 (inferred)
With B11, the % cell associated fraction in assay [1] is over 50%.

B12: Cpd 495 (peptide)
peptide: Ac-[hLeu]YC[Tle]G[PipAla][PipAla]([PEG4′-DOTA])DVYC[Trp(5-F)][(2S,3S)βMePhe][Val(3-OH)][dE]-NH2
modifications: disulfide 3-11 (inferred)
In turn, B12 had a % cell associated fraction in assay [1] of over 50%.

B13: Cpd 501 (peptide)
peptide: Ac-[hLeu]YC[Tle]G[PipAla][Ala(4-THP)]DVYC[Trp(5-F)][(2S,3S)βMePhe][Val(3-OH)][dK]([dE-DOTA])-OH
modifications: disulfide 3-11 (inferred)
On to B13, for which the % cell associated fraction in assay [1] was over 50%.

B14: Cpd 77 (peptide)
peptide: Ac-[hLeu]YCV[Sar]KYDVYC[Trp(5-F)]FT[dK](DOTA)-NH2
modifications: disulfide 3-11
SMILES: CC(=O)N[C@@H](CCC(C)C)C(=O)N[C@@H](Cc1ccc(O)cc1)C(=O)N[C@H]1CSSC[C@@H](C(=O)N[C@@H](Cc2c[nH]c3ccc(F)cc23)C(=O)N[C@@H](Cc2ccccc2)C(=O)N[C@H](C(=O)N[C@H](CCCCNC(=O)CN2CCN(CC(=O)O)CCN(CC(=O)O)CCN(CC(=O)O)CC2)C(N)=O)[C@@H](C)O)NC(=O)[C@H](Cc2ccc(O)cc2)NC(=O)[C@H](C(C)C)NC(=O)[C@H](CC(=O)O)NC(=O)[C@H](Cc2ccc(O)cc2)NC(=O)[C@H](CCCCN)NC(=O)CN(C)C(=O)[C@H](C(C)C)NC1=O
B14: the “% cell associated fraction” value in the assay with B7-H3 on Calu-6 cells was over 50%.

B15: Cpd 464 (peptide)
peptide: Ac-[hLeu]YC[Tle]G[PipAla][Ala(4-THP)]DVYC[Trp(5-F)]F[hydroxyVal][dK]([hGlu-DOTA])-OH
modifications: disulfide 3-11 (inferred)
Consider B15, for which the % cell associated fraction in assay [1] was over 50%.

B16: Cpd 497 (peptide)
peptide: Ac-[hLeu]YC[Tle]G[PipAla](CH2COOH)[Ala(4-THP)]DVYC[Trp(5-F)][(2S,3S)βMePhe][Val(3-OH)][dK](DOTA)-OH
modifications: disulfide 3-11 (inferred)
For B16, the % cell associated fraction in assay [1] was over 50%.

B17: Cpd 427 (peptide)
peptide: Ac-[hLeu]YC[Tle]G[PipAla][Ala(4-THP)]DV[Phe(4-NHCONH2)]CXF[hydroxyVal][dK](DOTA)-OH
modifications: disulfide 3-11 (inferred); not fully specified (residue 12); printed as Ac-hLeu-Y-C-Tbg-G-PipAla-ThpA-D-V-Aph(Cbm)-C-5FW-F-hydroxyVal-dLys(DOTA)-COOH, disulfide
B17 returned a % cell associated fraction in assay [1] of over 50%.

B18: Cpd 455 (peptide)
peptide: Ac-[hLeu]YC[Tle]G[PipAla][PipAla]([PEG4′-DOTA])DVYC[Trp(5-F)]F[hydroxyVal][dA]-OH
modifications: disulfide 3-11 (inferred)
In turn, B18 showed a % cell associated fraction in assay [1] of over 50%.

B19: Cpd 72 (peptide)
peptide: Ac-[hLeu]YC[Tle]GKYDVYCWFT[dK](DOTA)-NH2
modifications: disulfide 3-11
SMILES: CC(=O)N[C@@H](CCC(C)C)C(=O)N[C@@H](Cc1ccc(O)cc1)C(=O)N[C@H]1CSSC[C@@H](C(=O)N[C@@H](Cc2c[nH]c3ccccc23)C(=O)N[C@@H](Cc2ccccc2)C(=O)N[C@H](C(=O)N[C@H](CCCCNC(=O)CN2CCN(CC(=O)O)CCN(CC(=O)O)CCN(CC(=O)O)CC2)C(N)=O)[C@@H](C)O)NC(=O)[C@H](Cc2ccc(O)cc2)NC(=O)[C@H](C(C)C)NC(=O)[C@H](CC(=O)O)NC(=O)[C@H](Cc2ccc(O)cc2)NC(=O)[C@H](CCCCN)NC(=O)CNC(=O)[C@H](C(C)(C)C)NC1=O
Turning to B19, the “% cell associated fraction” value in the assay with B7-H3 on Calu-6 cells was over 50%.
